Measured values taken from paper doi:10.1101/239830.

Key:
Experiment in all cases: fluorescence polarisation
[1] = biological target: OR-1 peptide derived from olfactory receptor OLFR1507
[2] = biological target: V1rb2-1 peptide derived from vomeronasal receptor V1RB2
[3] = biological target: V1rb2-2 peptide derived from vomeronasal receptor V1RB2

Kd [1]: 250 µM | Kd [2]: 6.6 µM | Kd [3]: 6.1 µM
Substance: PERK LD as used in the fluorescence anisotropy assays (domain or fragment)
